Target: the molecule itself
Experiment: SEC

B1: human ornithine transcarbamylase labeled with 3x FLAG at the C-terminus (enzyme, UniProt P00480 33-354, looked up)
chain: NKVQLKGRDLLTLKNFTGEEIKYMLWLSADLKFRIKQKGEYLPLLQGKSLGMIFEKRSTRTRLSTETGFALLGGHPCFLTTQDIHLGVNESLTDTARVLSSMADAVLARVYKQSDLDTLAKEASIPIINGLSDLYHPIQILADYLTLQEHYSSLKGLTLSWIGDGNNILHSIMMSAAKFGMHLQAATPKGYEPDASVTKLAEQYAKENGTKLLLTNDPLEAAHGGNVLITDTWISMGQEEEKKKRLQAFQGYQVTMKTAKVAASDWTFLHCLPRKPEEVDDEVFYSPRSLVFPEAENRKWTIMAVMVSLLTDYSPQLQKPKF
stoichiometry N: 3

Source: article PMC10372164 (Molecular Therapy. Nucleic Acids, 2023)
